Data published in article PMC4896055 (The Journal of Cell Biology, 2016).
Where a chain is given by its changes, count along the chain named. Numbers in names are those of the source.

B1: Recombinant Num1CC (amino acids 97-294), His6-T7-Num1CC (domain or fragment)
chain: MNFTLELSENLLVECRKLQSSNEAKNEQIKSLKQIKESLSDKIEELTNQKKSFMKELDSTKDLNWDLESKLTNLSMECRQLKELKKKTEKSWNDEKESLKLLKTDLEILTLTKNGMENDLSSQKLHYDKEISELKERILDLNNENDRLLISVSDLTSEINSLQSNRTERIKIQKQLDDAKASISSLKRKVQKKYYQKQ
B2: Recombinant Num1CC^3E (K121E + R262E + R265E), His6-T7-Num1CC^3E (domain or fragment)
chain: B1 chain with K25E, R166E, R169E
B3: Recombinant Mdm36, His6-T7-Mdm36 (natural protein)
chain: MDENGTVKPGYELKGLNSGNSRSNMDKDPIVSKFHRAGLNDSADEEDTDINGNRNTSWITSMISEEKRKVEGKSMLNDEEDLHLSKATLNKCDALVKILADIIKLEFVIHQSWYIRSLHKSVLIQFEVETSGGNKNSAGDSGDDDDDNHNGNLDDSFYKDLSLKCIKKCEKSSLALESLSRDIDQIRDFIMSNTIEDNRVDRLLQNSMTLLLECWIYSMKRLRRLRMKIAGIFVRSKLLLIDHELVTIWHFLQEQNEHETVNNENELKLAETIKSYRAFIKIFIQQLEDSESGSPSSSLFEECLHVFLDIESMYNSLNLNWLLNENKALQERLLSPSSTSENDHTNNLPVIDETKEIEDISSFVNSIVDASMLTHDLTPINSSDSDNLSNGEIDRLDGRRLSSSTSDMSLMMQRTSLQKQLPSLLTAFNNARRLEQELQNACKVNDNKHSTKDTDSNIRRNEHAMSSSVSSIISQNSTLASPSPPMSSSFISTAPSQSSSRMSTLPLSPSSSLLESQSQTLKNNMSQWLNQSRSGLNGTKLIPTNHIGFHSNVLNTLYGIGGGPVSKSYKSNQPSSQNT

Experiments:
SEC-MALS = molecular target: the molecule itself; assay: SEC-MALS
[1] = molecular target: B3; assay: co-sedimentation

Row | binding result [1] | Binder | stoichiometry N (SEC-MALS)
1 | binds | B1 | 2
2 | binds | B2 | –
3 | – | B3 | 2
